B1: VLX9 IgG2 (xi): chimeric VLX9 anti-CD47 mAb, human IgG2 (antibody)
heavy: QVQLQQFGAELAKPGASVQMSCKASGYTFTNYWIHWVKQRPGQGLEWIGYTDPRTDYTEYNQKFKDKATLAADRSSSTAYMRLSSLTSEDSAVYYCAGGGRVGLGYWGHGSSVTVSSASTKGPSVFPLAPCSRSTSESTAALGCLVKDYFPEPVTVSWNSGALTSGVHTFPAVLQSSGLYSLSSVVTVPSSNFGTQTYTCNVDHKPSNTKVDKTVERKCCVECPPCPAPPVAGPSVFLFPPKPKDTLMISRTPEVTCVVVDVSHEDPEVQFNWYVDGVEVHNAKTKPREEQFNSTFRVVSVLTVVHQDWLNGKEYKCKVSNKGLPAPIEKTISKTKGQPREPQVYTLPPSREEMTKNQVSLTCLVKGFYPSDIAVEWESNGQPENNYKTTPPMLDSDGSFFLYSKLTVDKSRWQQGNVFSCSVMHEALHNHYTQKSLSLSPGK
light: DVFMTQTPLSLPVSLGDQASISCRSSQNIVQSNGNTYLEWYLQKPGQSPKLLIYKVFHRFSGVPDRFSGSGSGTDFTLKISRVEAEDLGVYYCFQGSHVPWTFGGGTKVEIKRTVAAPSVFIFPPSDEQLKSGTASVVCLLNNFYPREAKVQWKVDNALQSGNSQESVTEQDSKDSTYSLSSTLTLSKADYEKHKVYACEVTHQGLSSPVTKSFNRGEC
B2: VLX9 IgG (murine): murine VLX9 anti-CD47 antibody (antibody, V domains shown)
VH: QVQLQQFGAELAKPGASVQMSCKASGYTFTNYWIHWVKQRPGQGLEWIGYTDPRTDYTEYNQKFKDKATLAADRSSSTAYMRLSSLTSEDSAVYYCAGGGRVGLGYWGHGSSVTVSS
VL: DVFMTQTPLSLPVSLGDQASISCRSSQNIVQSNGNTYLEWYLQKPGQSPKLLIYKVFHRFSGVPDRFSGSGSGTDFTLKISRVEAEDLGVYYCFQGSHVPWTFGGGTKVEIK

How the values were obtained:
Jurkat cells [1] = test: Phagocytosis of tumor cells by human macrophages; type: cell-based; details: 1 μg/ml mAb
Method: Human derived macrophages were derived from leukapheresis of healthy human peripheral blood and incubated in AIM-V media (Life Technologies) for 7-10 days. For the in vitro phagocytosis assay, macrophages were re-plated at a concentration of 1×10^4 cells per well in 100 ul of AIM-V media in a 96-well plate and allowed to adhere for 24 hrs. Once the effector macrophages adhered to the culture dish, the target human cancer cells (Jurkat) were labelled with 1 μM 5(6)-Carboxyfluorescein diacetate N-succinimidyl ester (CFSE; Sigma Aldrich) and added to the macrophage cultures at a concentration of 5×10^4 cells in […] of AIM-V media (5:1 target to effector ratio). VLX4, VLX8, and VLX9 CD47 mAbs (1 μg/ml) were added immediately upon mixture of target and effector cells and allowed to incubate at 37° C. for 2-3 hours. After 2-3 hrs, all non-phagocytosed cells were removed and the remaining cells washed three times with phosphate buffered saline (PBS; Sigma Aldrich). Cells were then trypsinized, collected into microcentrifuge tubes, and incubated in 100 ng of allophycocyanin (APC) labelled CD14 antibodies (BD Biosciences) for 30 minutes, washed once, and analyzed by flow cytometry (Accuri C6; BD Biosciences) for the percentage of CD14^+ cells that were also CFSE^+ indicating complete phagocytosis.

Jurkat cells [2] = test: Cell death by soluble mAb, annexin V / 7-AAD; type: cell-based, human; details: 1 μg/ml, 24 hrs
Method: Induction of cell death by soluble anti-CD47 mAbs is measured in vitro (Manna et al. (2003) J. Immunol. 107 (7): 3544-53, Kikuchi et al. Biochem Biophys Res. Commun. 315: 912-8, 2004), Pettersen et al. J. Immuno. 162: 7031-7040, 1999), Manna et al. Cancer Research, 64: 1026-1036, 2004). For the in vitro cell death assay, 1×10^5 transformed human T cells (Jurkat cells) were incubated with soluble humanized VLX4, VLX8, and VLX9 CD47 mAbs (1 μg/ml) for 24 hrs at 37° C. As cell death occurs, mitochondrial membrane potential is decreased, the inner leaflet of the cell membrane is inverted, exposing phosphatidylserines (PS), and propidium iodide (PI) or 7-aminoactinomycin D (7-AAD) is able to incorporate into nuclear DNA. In order to detect these cellular changes, cells were then stained with fluorescently labelled annexin V and PI or 7-aminoactinomycin D (7-AAD) (BD Biosciences) and the signal detected using an Accuri C6 flow cytometer (BD Biosciences). The increase in PS exposure is determined by measuring the percent increase in annexin V signal and the percent of dead cells by measuring the percent increase in PI or 7-AAD signal. Annexin V positive (annexin V^+) or annexin V positive/7-AAD negative (annexin V^+/7-AAD^−) cells are observed in early stages of cell death and annexin V positive/7-AAD positive (annexin V^+/7-AAD^+) cells are dead cells. […]

hRBCs = test: Hemagglutination of washed human red blood cells; type: cell-based
Method: Hemagglutination of hRBCs was assessed following incubation of hRBCs with various concentrations of chimeric and humanized VLX4, VLX8, and VLX9 mAbs in vitro essentially as described by Kikuchi et al. Biochem Biophys Res. Commun (2004) 315:912-918. Blood was obtained from healthy donors, diluted (1:50) in PBS/1 mM EDTA/BSA and washed 3 times with PBS/EDTA/BSA. hRBCs were added to U-bottomed 96 well plates with equal volumes of the antibodies (75 μl of each) and incubated for 3 hrs at 37° C. and overnight at 4° C.

[3] = biological target: T1, His-CD47 (recombinant human CD47) (Homo sapiens, UniProt Q08722); test: Solid-phase CD47 ELISA at pH 6 or pH 8; type: binding; details: pH 6.0 versus pH 8.0
T1 construct: His; purchased AcroBiosystems
Method: Binding by soluble anti-CD47 mAbs to immobilized recombinant human CD47 and to human CD47 expressed on cells was measured in vitro. For the in vitro binding to recombinant CD47, His-CD47 (AcroBiosystems) was adsorbed to high-binding microtiter plates overnight at 4° C. The wells were washed and varying concentrations of anti-CD47 mAbs were added to the wells in buffers with a of either pH 6 or pH 8 for 1 hour. The wells were washed and then incubated with HRP-labelled secondary antibody for 1 hour at pH 6 or pH 8 followed by addition of peroxidase substrate. The apparent affinities were calculated using non-linear fit model (Graphpad Prism).

Row | Molecule | phagocytosis of Jurkat cells by human macrophages (Jurkat cells [1]) | PS exposure and cell death of Jurkat cells (annexin V^+, annexin V^+/7-AAD^−, annexin V^+/7-AAD^+) (Jurkat cells [2]) | HA hRBC (hRBCs; hemagglutination, chimeric (xi) mAbs, Table 1) | visible hemagglutination of hRBCs (hRBCs; result in words, mAb concentrations from 50 μg/ml down) | pH dependent binding to His-CD47 [3]
1 | B1 | increased phagocytosis | induced increased PS exposure and cell death | Yes | caused visible hemagglutination | 
2 | B2 |  |  |  |  | did not display pH dependence

— patent publication US20220313819A1, “COMBINATION THERAPY FOR THE TREATMENT OF SOLID AND HEMATOLOGICAL CANCERS” (Arch Oncology, Inc., priority 2019, published 2022)
